# Tested on: TfiI-s (N-terminally shortened TfiI) lacks first 12 amino acids; translation presumed to start at TTG codon (Thermus filiformis)
# Test: cleavage_in_vitro
# Settings: cell lysate; lambda DNA substrate
substance,measurement,value
lambda DNA,activity (units/g wet cells),100000
